{"source": "paper PMC3605331", "about": "“Cloning and characterization of a novel cold-active glycoside hydrolase family 1 enzyme with β-glucosidase, β-fucosidase and β-galactosidase activities” (BMC Biotechnology, 2013)", "key": {"[1]": {"tested_on": "T1, O=[N+]([O-])c1ccc(O[C@@H]2O[C@H](CO)[C@@H](O)[C@H](O)[C@H]2O)cc1", "T1 construct": "E. coli LMG194; monomer", "assay": "purified protein", "format": "biochemical, uncultured bacterium", "details": "20 mM phosphate buffer, 20°C, substrate 1.0-5.0 mM"}, "[2]": {"tested_on": "T2, O=[N+]([O-])c1ccccc1O[C@@H]1O[C@H](CO)[C@H](O)[C@H](O)[C@H]1O", "T2 construct": "E. coli LMG194; monomer", "assay": "purified protein", "format": "biochemical, uncultured bacterium", "details": "20 mM phosphate buffer, 20°C, substrate 1.0-5.0 mM"}}, "data": [{"substance": "BglMKg (uncultured bacterium)", "values": [{"measurement": "Km", "setting": "[1]", "value": "0.16 ± 0.03", "unit": "mM"}, {"measurement": "kcat", "setting": "[1]", "value": "11.7 ± 0.26", "unit": "s⁻¹"}, {"measurement": "kcat/Km", "setting": "[1]", "value": 73400, "unit": "M⁻¹ s⁻¹"}, {"measurement": "Km", "setting": "[2]", "value": "9.04 ± 1.39", "unit": "mM"}, {"measurement": "kcat", "setting": "[2]", "value": "12.4 ± 1.35", "unit": "s⁻¹"}, {"measurement": "kcat/Km", "setting": "[2]", "value": 1370, "unit": "M⁻¹ s⁻¹"}]}]}
